# Source: US20050100554A1 (published 2005)
# B1: DAD1 (other)
# chain: SASVVSVISRFLEEYLSSTPQRLKLLDAYLLYILLTGALQFGYCLLVGTFPFNSFLSGFISCVGSFILAVCLRIQINPQNKADFQGISPERAFADFLFASTILHLVVMNFVG
# notes: also called cbe_4268208
# B2: Human papillomavirus 16 E2 (other)
# chain: METLCQRLNVCQDKILTHYENDSTDLRDHIDYWKHMRLECAIYYKAREMGFKHINHQVVPTLAVSKNKALQAIELQLTLETIYNSQYSNEKWTLQDVSLEVYLTAPTGCIKKHGYTVEVQFDGDICNTMHYTNWTHIYICEEASVTVVEGQVDYYGLYYVHEGIRTYFVQFKDDAEKYSKNKVWEVHAGGQVILCPTSVFSSNEVSSPEIIRQHLANHPAATHTKAVALGTEETQTTIQRPRSEPDTGNPCHTTKLLHRDSVDSAPILTAFNSSHKGRINCNSNTTPIVHLKGDANTLKCLRYRFKKHCTLYTAVSSTWHWTGHNVKHKSAIVTLTYDSEWQRDQFLSQVKIPKTITVSTGFMSI
# notes: also called HPV 16 E2; cbe_251088
# B3: soggy-1 gene (other)
# chain: APIHDADAQESSLGLTGLQSLLQGFSRLFLKGNLLRGIDSLFSAPMDFRGLPGNYHKEENQEHQLGNNTLSSHLQIDKMTDNKTGEVLISENVVASIQPAEGSFEGDLKVPRMEEKEALVPIQKATDSFHTELHPRVAFWIIKLPRRRSHQDALEGGHWLSEKRHRLQAIRDGLRKGTHKDVLEEGTESSSHSRLSPRKTHLLYILRPSRQL
# notes: also called DKKL1-pending; cbe_4279962
# B4: Human papillomavirus 16 E7 (other)
# chain: MHGDTPTLHEYMLDLQPETTDLYCYEQLNDSSEEEDEIDGPAGQAEPDRAHYNIVTFCCKCDSTLRLCVQSTHVDIRTLEDLLMGTLGIVCPICSQKP
# notes: also called HPV 16 E7; HPV16 E7
# B5: eukaryotic translation elongation factor 1 alpha 1-like 14 (other)
# chain: MQSERGITIDISLWKFETSKYYVTIIDAPGHRDFIQNMITGTSQADCAVLIVAAGVGEFEAGISKNGQTREHALLAYTLGVKQLIVGVNKMDSTEPPYSQKRYEEIVKEVSTYIKKIGYNPDTVAFVPISGWNGDNMLEPSANMPWFKGWKVTRKDGNASGTTLLEALDCILPPTRPTDKPLGLPLQDVYKIGGIGTVPVGRVETGVLKPGMVVTFGPVNVTTEVKSVEMHHEALGEALPGDNVGFNVKNVSVKDVRRGNVAGDSKNDPPMEAAGFPAQVIILNHPGQISAGYAPVLDCHTAHIACKFAELKEKIDRRSGKKLEDGPKFLKSGDAAIVDMVPGKPMCVESFSDYPPLGCFAVRDMRQTVAVGVIKAVDKKAAGAGKVTKSAQKAQKAK
# notes: also called EEF1A1L14; cbe_3773649
# Legend:
# [1] = target: B2; experiment: Y2H; INT ID 150
# [2] = target: T1, Human Papillomavirus 1a L2 (Human Papillomavirus 1a, UniProt P03105 1-507); experiment: Y2H; INT ID 146
# T1 construct: also called HPV 1a L2; cbe_252041
# T1 sequence: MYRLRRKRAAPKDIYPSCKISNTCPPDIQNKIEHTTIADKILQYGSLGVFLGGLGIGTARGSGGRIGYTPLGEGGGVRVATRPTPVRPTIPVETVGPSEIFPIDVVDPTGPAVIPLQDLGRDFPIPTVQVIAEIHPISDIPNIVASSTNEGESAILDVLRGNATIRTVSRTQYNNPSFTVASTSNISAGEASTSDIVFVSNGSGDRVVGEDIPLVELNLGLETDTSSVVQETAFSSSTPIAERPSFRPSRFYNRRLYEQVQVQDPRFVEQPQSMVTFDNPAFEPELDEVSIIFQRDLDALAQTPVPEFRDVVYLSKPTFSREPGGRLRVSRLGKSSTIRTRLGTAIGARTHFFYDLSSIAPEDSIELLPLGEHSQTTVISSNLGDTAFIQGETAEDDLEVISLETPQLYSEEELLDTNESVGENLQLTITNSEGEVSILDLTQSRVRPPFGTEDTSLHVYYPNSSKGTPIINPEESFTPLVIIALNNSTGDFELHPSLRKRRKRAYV
# EFEMP1 = target: T2, EFEMP1 (human, UniProt Q12805 18-493); experiment: Y2H; INT ID 147
# T2 construct: also called cbe_2321057
# T2 sequence: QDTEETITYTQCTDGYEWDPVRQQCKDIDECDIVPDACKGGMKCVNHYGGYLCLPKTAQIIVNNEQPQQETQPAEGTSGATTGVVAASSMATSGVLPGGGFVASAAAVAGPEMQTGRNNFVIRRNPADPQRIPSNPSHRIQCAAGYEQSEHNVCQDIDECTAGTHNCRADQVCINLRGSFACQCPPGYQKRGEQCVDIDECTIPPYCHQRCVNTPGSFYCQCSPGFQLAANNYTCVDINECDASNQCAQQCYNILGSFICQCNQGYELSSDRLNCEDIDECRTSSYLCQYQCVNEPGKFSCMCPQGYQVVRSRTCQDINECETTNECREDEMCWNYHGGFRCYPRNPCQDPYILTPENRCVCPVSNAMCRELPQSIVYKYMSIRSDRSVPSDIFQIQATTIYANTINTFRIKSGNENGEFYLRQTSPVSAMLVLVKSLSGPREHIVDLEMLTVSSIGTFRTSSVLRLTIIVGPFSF
# [3] = target: B2; experiment: Y2H; INT ID 151
# keratin 4 = target: T3, keratin 4 (human, UniProt P19013 1-520); experiment: Y2H; INT ID 168
# T3 construct: also called KRT4; cbe_3474077
# [4] = target: T4, zinc finger protein ZNF140-like protein (human, UniProt Q9NR11 1-478); experiment: Y2H; INT ID 170
# T4 construct: also called LOC55828; cbe_3787129
# [5] = target: T5, tissue factor pathway inhibitor (lipoprotein-associated coagulation inhibitor) (human, UniProt P10646 29-304); experiment: Y2H; INT ID 172
# T5 construct: also called TFPI; cbe_3834015
# T5 sequence: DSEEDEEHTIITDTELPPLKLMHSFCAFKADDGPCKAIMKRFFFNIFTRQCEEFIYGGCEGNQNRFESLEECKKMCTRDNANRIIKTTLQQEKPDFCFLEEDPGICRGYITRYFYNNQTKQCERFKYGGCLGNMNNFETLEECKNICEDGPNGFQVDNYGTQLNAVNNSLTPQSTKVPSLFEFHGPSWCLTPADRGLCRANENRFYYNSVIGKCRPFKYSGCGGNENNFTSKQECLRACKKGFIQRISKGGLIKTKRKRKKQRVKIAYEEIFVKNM
# MPP3 = target: T6, MPP3 (human, UniProt Q13368 1-585); experiment: Y2H; INT ID 173
# T6 construct: also called cbe_3921620
# T6 sequence: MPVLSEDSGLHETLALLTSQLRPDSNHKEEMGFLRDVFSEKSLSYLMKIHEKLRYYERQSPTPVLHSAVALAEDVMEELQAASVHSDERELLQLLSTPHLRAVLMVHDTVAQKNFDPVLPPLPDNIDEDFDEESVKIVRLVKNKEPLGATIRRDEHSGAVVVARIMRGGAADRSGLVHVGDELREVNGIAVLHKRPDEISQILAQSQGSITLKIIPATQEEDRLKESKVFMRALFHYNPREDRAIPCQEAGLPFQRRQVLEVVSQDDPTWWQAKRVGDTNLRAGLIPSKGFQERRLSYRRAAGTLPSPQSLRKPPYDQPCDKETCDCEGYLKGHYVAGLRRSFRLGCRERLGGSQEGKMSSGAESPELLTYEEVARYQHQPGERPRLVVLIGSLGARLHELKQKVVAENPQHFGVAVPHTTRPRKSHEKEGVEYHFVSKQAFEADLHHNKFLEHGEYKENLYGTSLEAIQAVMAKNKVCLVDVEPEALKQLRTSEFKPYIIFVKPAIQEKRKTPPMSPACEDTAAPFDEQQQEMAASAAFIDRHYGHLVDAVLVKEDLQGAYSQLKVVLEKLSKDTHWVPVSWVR
# PTPN21 = target: T7, PTPN21 (human, UniProt Q16825 1-1174); experiment: Y2H; INT ID 174
# T7 construct: also called cbe_4260642
# T7 sequence: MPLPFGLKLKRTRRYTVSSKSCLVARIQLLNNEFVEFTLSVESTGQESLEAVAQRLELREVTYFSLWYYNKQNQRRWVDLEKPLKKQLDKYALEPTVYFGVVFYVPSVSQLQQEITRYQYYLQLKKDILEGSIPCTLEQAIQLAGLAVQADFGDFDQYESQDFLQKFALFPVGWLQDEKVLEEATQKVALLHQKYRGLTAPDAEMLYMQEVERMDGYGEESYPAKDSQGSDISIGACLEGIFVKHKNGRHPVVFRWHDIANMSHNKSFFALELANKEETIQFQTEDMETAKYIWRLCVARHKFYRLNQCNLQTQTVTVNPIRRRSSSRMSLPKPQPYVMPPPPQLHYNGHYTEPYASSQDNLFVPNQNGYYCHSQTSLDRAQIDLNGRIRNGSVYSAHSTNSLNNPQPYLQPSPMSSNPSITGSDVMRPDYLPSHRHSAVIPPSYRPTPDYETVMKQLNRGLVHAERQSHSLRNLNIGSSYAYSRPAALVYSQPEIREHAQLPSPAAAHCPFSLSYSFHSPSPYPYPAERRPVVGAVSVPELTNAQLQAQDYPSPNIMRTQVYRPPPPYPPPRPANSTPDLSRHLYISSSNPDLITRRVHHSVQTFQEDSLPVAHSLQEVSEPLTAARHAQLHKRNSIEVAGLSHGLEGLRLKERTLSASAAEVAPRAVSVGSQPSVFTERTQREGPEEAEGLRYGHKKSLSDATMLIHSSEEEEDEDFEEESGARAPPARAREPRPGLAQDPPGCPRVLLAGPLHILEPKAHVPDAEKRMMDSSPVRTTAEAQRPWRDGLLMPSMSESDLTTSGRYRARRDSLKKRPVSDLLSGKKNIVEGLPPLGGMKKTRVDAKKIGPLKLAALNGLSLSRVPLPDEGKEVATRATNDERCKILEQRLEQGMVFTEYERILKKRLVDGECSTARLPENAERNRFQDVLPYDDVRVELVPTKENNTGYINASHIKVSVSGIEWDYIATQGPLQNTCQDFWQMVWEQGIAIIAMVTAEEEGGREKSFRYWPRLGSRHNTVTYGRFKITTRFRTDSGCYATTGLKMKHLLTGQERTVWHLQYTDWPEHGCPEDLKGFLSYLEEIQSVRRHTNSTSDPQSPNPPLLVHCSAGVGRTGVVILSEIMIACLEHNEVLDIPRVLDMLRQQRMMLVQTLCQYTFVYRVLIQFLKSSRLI
# NDUFS3 = target: T8, NDUFS3 (human, UniProt O75489 37-264); experiment: Y2H; INT ID 176
# T8 construct: also called cbe_4268611
# PSMC1 = target: T9, PSMC1 (human, UniProt P62191 2-440); experiment: Y2H; INT ID 179
# T9 construct: also called proteosome 26S subunit; proteosome subunit PMSC1
# STX4A = target: T10, STX4A (human, UniProt Q12846 1-297); experiment: Y2H; INT ID 181
# T10 construct: also called syntaxin 4; cbe_4270186
# T10 sequence: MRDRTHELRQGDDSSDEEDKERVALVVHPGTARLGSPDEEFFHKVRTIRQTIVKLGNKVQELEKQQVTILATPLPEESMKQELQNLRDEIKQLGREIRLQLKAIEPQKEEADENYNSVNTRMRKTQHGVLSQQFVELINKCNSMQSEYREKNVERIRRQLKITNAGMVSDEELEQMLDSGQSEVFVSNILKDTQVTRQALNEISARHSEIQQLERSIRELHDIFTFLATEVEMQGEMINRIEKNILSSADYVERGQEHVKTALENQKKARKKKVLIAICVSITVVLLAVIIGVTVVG
# [6] = target: B4; experiment: Y2H; INT ID 169
# T9 sequence (P62191 2-440 limits assumed): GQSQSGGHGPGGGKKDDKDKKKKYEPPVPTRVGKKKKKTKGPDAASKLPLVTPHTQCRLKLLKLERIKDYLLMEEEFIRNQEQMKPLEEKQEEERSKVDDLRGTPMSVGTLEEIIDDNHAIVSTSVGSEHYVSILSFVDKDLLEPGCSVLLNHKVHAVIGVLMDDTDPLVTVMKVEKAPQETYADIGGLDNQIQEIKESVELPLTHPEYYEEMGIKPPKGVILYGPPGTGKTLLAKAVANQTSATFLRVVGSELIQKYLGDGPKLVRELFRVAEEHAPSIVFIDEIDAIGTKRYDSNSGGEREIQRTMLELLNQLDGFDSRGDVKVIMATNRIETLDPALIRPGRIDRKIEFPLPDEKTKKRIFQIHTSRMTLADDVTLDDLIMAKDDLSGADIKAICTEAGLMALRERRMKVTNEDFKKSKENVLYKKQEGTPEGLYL
# T8 sequence (O75489 37-264 limits assumed): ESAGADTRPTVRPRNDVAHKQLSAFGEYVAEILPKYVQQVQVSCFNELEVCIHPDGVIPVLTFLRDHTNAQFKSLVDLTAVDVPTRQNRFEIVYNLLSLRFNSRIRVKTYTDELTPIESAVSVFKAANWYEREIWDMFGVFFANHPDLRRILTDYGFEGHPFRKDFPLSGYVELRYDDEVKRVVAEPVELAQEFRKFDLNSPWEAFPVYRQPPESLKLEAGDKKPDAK
# T3 sequence (P19013 other isoform, or with tags, fused parts or gaps limits assumed): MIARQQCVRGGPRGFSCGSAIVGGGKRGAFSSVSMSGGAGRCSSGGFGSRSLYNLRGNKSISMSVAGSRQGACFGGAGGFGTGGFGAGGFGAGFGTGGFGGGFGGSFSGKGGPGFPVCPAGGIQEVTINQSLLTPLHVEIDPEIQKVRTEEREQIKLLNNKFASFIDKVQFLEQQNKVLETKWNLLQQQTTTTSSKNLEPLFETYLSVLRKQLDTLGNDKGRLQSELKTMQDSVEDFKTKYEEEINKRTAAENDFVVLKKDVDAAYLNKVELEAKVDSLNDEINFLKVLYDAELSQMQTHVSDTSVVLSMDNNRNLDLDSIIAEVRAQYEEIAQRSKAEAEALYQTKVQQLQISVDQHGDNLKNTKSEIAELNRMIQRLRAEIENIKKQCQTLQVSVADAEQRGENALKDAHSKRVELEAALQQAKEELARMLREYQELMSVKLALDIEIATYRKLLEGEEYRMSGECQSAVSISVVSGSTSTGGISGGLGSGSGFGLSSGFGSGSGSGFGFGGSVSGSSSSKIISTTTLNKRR
# T4 sequence (Q9NR11 whole entry): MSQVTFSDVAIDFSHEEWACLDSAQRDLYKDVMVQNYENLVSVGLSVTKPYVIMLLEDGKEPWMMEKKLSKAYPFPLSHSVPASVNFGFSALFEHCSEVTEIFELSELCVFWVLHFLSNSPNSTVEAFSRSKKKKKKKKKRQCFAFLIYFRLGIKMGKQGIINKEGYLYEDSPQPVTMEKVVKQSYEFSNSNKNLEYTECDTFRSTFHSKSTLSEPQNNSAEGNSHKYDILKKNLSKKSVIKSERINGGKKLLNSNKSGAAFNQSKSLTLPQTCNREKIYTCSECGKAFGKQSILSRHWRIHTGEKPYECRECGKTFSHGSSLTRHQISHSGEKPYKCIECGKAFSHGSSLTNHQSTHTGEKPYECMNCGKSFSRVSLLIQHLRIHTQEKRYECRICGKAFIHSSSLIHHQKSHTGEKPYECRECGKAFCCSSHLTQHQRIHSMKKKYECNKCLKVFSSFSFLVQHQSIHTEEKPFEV
binder,measurement,setting,value
B1,binding result,[1],binds
B2,binding result,[2],binds
same,binding result,EFEMP1,binds
B3,binding result,[3],binds
B4,binding result,keratin 4,binds
same,binding result,[4],binds
same,binding result,[5],binds
same,binding result,MPP3,binds
same,binding result,PTPN21,binds
same,binding result,NDUFS3,binds
same,binding result,PSMC1,binds
same,binding result,STX4A,binds
B5,binding result,[6],binds
